The test deals with recombinant LHCII (major light-harvesting complex), Lhcb1*2 (AB80) derivative with N-terminal Cys-Cys-Cys motif, C79S and C-terminal His6 tag (pea (Pisum sativum)). As to the kind of experiment: sucrose density gradient ultracentrifugation; reconstituted monomers trimerized by His6 tag on Ni2+-sepharose columns, then sucrose density gradient (500 mM sucrose, 10 mM Tris-HCl pH 7.5, 5 mM TCEP, 0.05% (w/v) Triton X-100); trimer band collected and checked by CD (negative peak at 474 nm).

On to “recombinant LHCII (major light-harvesting complex), Lhcb1*2 (AB80) derivative with N-terminal Cys-Cys-Cys motif, C79S and C-terminal His6 tag (natural protein)”, for which the stoichiometry N is 3.

As a reminder, the stoichiometry N is the number of molecules, sites or subunits per partner or assembly.

The values are drawn from PMC5505961.
